For the test, the target named is HIV-1JR-FL envelope glycoproteins gp120/gp41 (HIV-1 JR-FL). Nature of the test: cell-based or functional assay.

Consider “CD4-IgG2 (from UniProt P01730 26-203; P01730 26-203) (Fc fusion)”, for which the IC90, inhibition of HIV-1JR-FL Env-mediated cell-cell fusion (RET assay) was found to be 11 nM; the IC90, inhibition of HIV-1JR-FL virus-cell fusion (luciferase reporter virus, HeLa-CD4+CCR5+ cells) is 12 nM; the K (equal to IC50), inhibition of env-mediated membrane fusion (RET) between HeLa-EnvJR-FL and PM1 cells is 0.31 µg/mL; the activity in the RET assay after co-incubation of HeLa-Env cells, PM1 cells and inhibitor for 2 h at 25° C., washing and warming to 37° C. was 12 fold lower. Also, the potency in the washout RET assay (drug pre-incubated with HeLa-Env cells, washed, then PM1 cells added) against the standard assay is 6 fold lower.
Regarding T-20 (peptide), the IC90, inhibition of HIV-1JR-FL Env-mediated cell-cell fusion (RET assay) came to 22 nM; the IC90, inhibition of HIV-1JR-FL virus-cell fusion (luciferase reporter virus, HeLa-CD4+CCR5+ cells) was determined as 45 nM; the K (equal to IC50), inhibition of env-mediated membrane fusion (RET) between HeLa-EnvJR-FL and PM1 cells stood at 0.017 µg/mL; the increase in IC50 in the RET assay after co-incubation of HeLa-Env cells, PM1 cells and inhibitor for 2 h at 25° C., washing and warming to 37° C. (fold increase in IC50) was > 250.

The values are drawn from US20020106374A1.
